Assay results: patent US20220411799, “DNMT1-Specific Aptamers and Production and Uses Thereof” (National University of Singapore, published 2022)

Experiments:
DNMT1 [1] = target: T1, DNMT1 (Homo sapiens, UniProt P26358 P26358:1-1616); assay: ELONA; 200 nM aptamer; settings: tags: His-tagged (Active Motif), full-length; GST-tagged version (Active Motif) used for SELEX; label: 5'-biotin; hairpin
Protocol: (§1) Microtiter High Binding plate (Nunc MaxiSorp) wells were coated with 30 nM of His-tagged DNMT1 (Active Motif) or HSA overnight at 4° C. All subsequent steps were performed at room temperature. After incubation, the plate was washed once with PBS and then blocked each well with 300 μl 3% BSA (AppliChem) in PBS for 2 hours. After two washes, the plate was incubated with 100 μL of 3′-biotinylated aptamers dissolved in PBS for 2 hours. Next, the plate was washed three times and streptavidin-conjugated horseradish peroxidase (HRP) (Sigma Aldrich) was added (1:10000 dilution). After 1-hour incubation, the plate was washed four times and the 3,3′,5,5′-Tetramethylbenzidine (TMB) substrate solution was added. The reaction was stopped with sulfuric acid (H₂SO₄) 0,16 M, forming a yellow reaction product that was read with microplate Reader (Thermo Scientific) at 450 nm.
The present disclosure identified three clusters of sequences with two aptamers (Ce-9 and Ce-10) representing the most enriched ones (FIG. 2a). These two aptamers present two mismatches among them and both had three mutation points compared to R5 (FIG. 2b). These sequences, together with Ce-49 that comes from a different cluster, were tested for the binding to DNMT1 purified protein by ELONA at 200 nM concentration.

DNMT1 [2] = target: T1, DNMT1; assay: inhibition; all short sequences stated; settings: tags: His-tagged (Active Motif), full-length; GST-tagged version (Active Motif) used for SELEX; label: 3'-biotin; hairpin
DNMT1 [3] = target: T1, DNMT1; assay: inhibition; in vitro DNMT1 inhibitor screening assay; settings: tags: His-tagged (Active Motif), full-length; GST-tagged version (Active Motif) used for SELEX; label: 3'-biotin (ELONA, pulldown); hairpin
Protocol: FIG. 5. Functional activity of the aptamers. (a) Activity of purified DNMT1 protein was analyzed in vitro by DNMT1 inhibitor screening assay in the absence (“-”) or in the presence of indicated aptamers. Results are expressed as percentage relative to the activity of DNMT1 protein alone; b. DNMT1 inhibitor screening assay performed with K-562 nuclear extracts from untreated cells (NT), treated with a sequence unable to bind DNMT1 (control) or transfected with the respective aptamers Ce-10-2 sh and Ce-49 sh. Results are expressed as percentage relative to the activity detected in NT sample; c. expression levels 72 hours upon aptamers transfection; d, e. Cell viability of CML K562 cells (d) or NSCLC Calu-1 and A549 cells (e) transfected with indicated aptamers or Cont. for 72 hours. In (a-d) Error bars depict mean±s.d.; R5-F: R5 sequence modified with 2′F-Py.
As next step, the present disclosure tested aptamer ability to inhibit DNMT1-mediated methylation. As first attempt, the present disclosure performed an in vitro DNMT1 inhibitor screening assay. The activity of DNMT1 purified protein was measured in the absence or in the presence of R5-F or the selected short sequences. […] The functional effects of the best binders (Ce-49 sh and Ce-10-2 sh) was further characterized monitoring the in vivo DNMT1 activity by using cell nuclear extracts from chronic K562 CML cells transfected with the aptamers (FIG. 5b).

DNMT1 [4] = target: T1, DNMT1; assay: BLI; BLItz, mutR5 background subtracted; settings: tags: His-tagged (Active Motif), full-length; GST-tagged version (Active Motif) used for SELEX; label: 3'-biotin (ELONA, pulldown); hairpin
Text: FIG. 4. Affinity and in vivo binding of DNMT1-specific aptamers. a. Analysis of Ce-49 sh and Ce-10 sh binding affinity to DNMT1 assessed by the Blitz system (ForteBIO). The background values obtained with mutR5 used as a negative control were subtracted from the values obtained with the aptamers; REMSA showing stronger Ce-49 sh and Ce-10 sh binding ability to DNMT1 than two alternative secondary structures of the original R5F (R5modified with 2′F-Py). Unrelated RNA and DNA are two […] controls. R01(unable to form stem-loop-like structures) is used as negative control; c. Increasing amount of Ce-49 sh and Ce-10 sh biotinylated aptamers were incubated in the presence or absence of HSA purified protein. No significant difference was detected between the blank control and the aptamers by ELONA. Error bars depict mean±s.d.; d. Aptamer-mediated pull-down. Protein extract from K562 cells were incubated with the biotinylated R5-F, Ce-49 sh and Ce-10-2 sh. Bound proteins were purified on streptavidin beads and immunoblotted with anti-DNMT1 antibodies.
Next, aptamer affinity to DNMT1 was assessed by the Blitz system (ForteBIO).

[5] = target: Human serum albumin (HSA) (Homo sapiens, UniProt P02768 P02768:25-609); assay: ELONA; no significant binding up to 750 nM; settings: label: 3'-biotin (ELONA, pulldown); hairpin
Protocol: as §1
To check the aptamer specificity, the present disclosure monitored the binding of Ce-49 sh and Ce-10-2 sh to the human serum albumin (HSA), the most enriched plasma protein that can bind, in a nonspecific manner, nucleic acids through its positive charge, thus limiting their use. […] As shown, no significant aptamer binding was measured up to 750 nM concentration. Binding was instead detected when aptamers were incubated with DNMT1 protein (FIG. 7).

DNMT3B = DNMT3B (UniProt Q9UBC3 Q9UBC3:1-853); assay: BLI; specificity control
DNMT3A = DNMT3A (UniProt Q9Y6K1 Q9Y6K1:1-912); assay: BLI; specificity control
KAT5 = KAT5 (UniProt Q92993 Q92993:1-513); assay: BLI; specificity control; settings: label: 3'-biotin (ELONA, pulldown); hairpin
DNMT1 [6] = target: T1, DNMT1; assay: BLI; 100 nM to 2 uM; R2=0.9017; p159 states Kd not measurable; settings: tags: His-tagged (Active Motif), full-length; GST-tagged version (Active Motif) used for SELEX; label: 3'-biotin (ELONA, pulldown); hairpin
Protocol: Dose-response binding analyses were also performed with the 2′F-pyrimidine modified R5 (indicated as DNMT1-bait) at concentrations ranging between 100 nM and 2 μM, since no binding was detected at lower concentrations (FIG. 8a). In accordance with previous findings, no binding was detected for the mutR5 sequence which is unable to fold in stem-loop-like structures and used as a negative control (FIG. 8b).

T1 sequence (P26358 whole entry, one chain of several): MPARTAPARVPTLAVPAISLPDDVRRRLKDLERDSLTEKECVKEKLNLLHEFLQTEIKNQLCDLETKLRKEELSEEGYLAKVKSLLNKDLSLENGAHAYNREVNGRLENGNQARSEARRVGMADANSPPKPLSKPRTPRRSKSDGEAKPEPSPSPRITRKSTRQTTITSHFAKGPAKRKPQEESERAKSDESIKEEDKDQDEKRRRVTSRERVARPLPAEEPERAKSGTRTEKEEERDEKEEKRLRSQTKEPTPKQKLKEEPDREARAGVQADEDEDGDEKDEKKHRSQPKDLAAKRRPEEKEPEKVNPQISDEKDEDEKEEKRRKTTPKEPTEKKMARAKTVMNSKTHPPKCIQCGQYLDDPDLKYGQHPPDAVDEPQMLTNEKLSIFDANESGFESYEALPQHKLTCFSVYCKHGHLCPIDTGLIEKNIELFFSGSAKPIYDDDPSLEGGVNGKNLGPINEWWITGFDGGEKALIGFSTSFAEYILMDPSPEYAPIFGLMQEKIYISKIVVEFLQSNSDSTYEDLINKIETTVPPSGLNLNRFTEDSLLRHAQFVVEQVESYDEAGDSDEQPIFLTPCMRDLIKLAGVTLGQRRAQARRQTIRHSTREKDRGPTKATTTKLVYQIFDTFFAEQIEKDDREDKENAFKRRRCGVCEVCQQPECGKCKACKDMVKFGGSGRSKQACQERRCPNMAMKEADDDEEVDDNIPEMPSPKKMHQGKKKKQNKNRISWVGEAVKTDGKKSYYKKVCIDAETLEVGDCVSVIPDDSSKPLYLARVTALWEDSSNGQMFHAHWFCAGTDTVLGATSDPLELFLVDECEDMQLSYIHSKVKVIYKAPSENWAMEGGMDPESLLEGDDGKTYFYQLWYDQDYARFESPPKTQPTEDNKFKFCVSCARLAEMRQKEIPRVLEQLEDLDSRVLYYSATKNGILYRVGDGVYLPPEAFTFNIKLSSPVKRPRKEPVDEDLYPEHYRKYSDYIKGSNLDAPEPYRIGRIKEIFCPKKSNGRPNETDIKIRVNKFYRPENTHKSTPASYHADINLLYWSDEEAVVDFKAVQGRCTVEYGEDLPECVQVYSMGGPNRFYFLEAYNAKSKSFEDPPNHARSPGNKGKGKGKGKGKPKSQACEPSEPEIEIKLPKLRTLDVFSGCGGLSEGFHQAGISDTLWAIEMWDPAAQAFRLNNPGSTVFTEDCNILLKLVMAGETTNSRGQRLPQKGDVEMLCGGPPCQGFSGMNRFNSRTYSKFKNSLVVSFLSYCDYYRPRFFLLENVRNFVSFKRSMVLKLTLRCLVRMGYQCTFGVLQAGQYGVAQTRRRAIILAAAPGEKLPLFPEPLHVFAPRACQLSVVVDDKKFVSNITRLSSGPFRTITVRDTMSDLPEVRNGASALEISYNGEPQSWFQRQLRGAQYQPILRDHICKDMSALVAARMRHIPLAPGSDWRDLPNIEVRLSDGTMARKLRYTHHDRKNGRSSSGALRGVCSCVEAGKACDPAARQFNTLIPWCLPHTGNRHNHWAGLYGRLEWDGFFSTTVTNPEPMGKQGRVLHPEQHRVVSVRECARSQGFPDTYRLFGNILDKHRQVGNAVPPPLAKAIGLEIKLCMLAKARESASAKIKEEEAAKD
Chain of DNMT3A (Q9Y6K1 whole entry, one chain of several): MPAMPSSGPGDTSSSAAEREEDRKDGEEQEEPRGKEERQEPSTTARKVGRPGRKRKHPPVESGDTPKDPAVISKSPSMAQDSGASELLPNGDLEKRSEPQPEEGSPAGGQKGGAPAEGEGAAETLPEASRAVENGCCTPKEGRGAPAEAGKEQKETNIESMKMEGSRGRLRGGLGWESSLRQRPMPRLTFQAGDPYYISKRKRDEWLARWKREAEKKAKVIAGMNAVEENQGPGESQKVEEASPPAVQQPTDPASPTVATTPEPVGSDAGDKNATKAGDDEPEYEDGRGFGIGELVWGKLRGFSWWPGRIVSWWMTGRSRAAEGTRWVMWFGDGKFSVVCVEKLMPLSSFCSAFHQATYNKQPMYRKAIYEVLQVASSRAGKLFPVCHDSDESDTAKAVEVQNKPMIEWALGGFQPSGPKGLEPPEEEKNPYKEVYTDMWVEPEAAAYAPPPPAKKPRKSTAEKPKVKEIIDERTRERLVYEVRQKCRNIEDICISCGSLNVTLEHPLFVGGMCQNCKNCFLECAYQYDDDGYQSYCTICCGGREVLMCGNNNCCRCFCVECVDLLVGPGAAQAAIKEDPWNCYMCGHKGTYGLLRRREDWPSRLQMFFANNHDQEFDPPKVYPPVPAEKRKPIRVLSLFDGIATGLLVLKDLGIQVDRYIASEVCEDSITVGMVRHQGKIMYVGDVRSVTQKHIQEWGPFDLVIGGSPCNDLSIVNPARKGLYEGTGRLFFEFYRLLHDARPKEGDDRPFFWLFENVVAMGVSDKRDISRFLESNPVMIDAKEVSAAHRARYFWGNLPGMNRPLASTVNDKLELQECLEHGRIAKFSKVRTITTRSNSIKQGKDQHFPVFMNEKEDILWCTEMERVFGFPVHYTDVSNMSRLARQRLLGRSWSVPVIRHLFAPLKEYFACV
Chain of KAT5 (Q92993 whole entry, one chain of several): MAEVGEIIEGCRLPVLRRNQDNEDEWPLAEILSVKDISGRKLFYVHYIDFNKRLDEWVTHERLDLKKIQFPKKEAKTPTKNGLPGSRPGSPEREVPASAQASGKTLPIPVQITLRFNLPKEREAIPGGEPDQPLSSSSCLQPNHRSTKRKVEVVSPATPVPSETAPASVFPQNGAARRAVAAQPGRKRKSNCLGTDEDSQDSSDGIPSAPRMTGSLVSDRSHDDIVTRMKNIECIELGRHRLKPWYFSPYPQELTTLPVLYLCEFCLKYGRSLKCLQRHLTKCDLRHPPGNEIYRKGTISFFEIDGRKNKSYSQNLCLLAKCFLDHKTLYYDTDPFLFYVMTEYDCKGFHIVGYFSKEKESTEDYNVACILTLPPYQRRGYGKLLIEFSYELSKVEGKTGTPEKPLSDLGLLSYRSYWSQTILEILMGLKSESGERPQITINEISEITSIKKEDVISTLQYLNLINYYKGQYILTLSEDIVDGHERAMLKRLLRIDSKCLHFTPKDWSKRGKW
Chain of Human serum albumin (HSA) (P02768 25-609, one chain of several): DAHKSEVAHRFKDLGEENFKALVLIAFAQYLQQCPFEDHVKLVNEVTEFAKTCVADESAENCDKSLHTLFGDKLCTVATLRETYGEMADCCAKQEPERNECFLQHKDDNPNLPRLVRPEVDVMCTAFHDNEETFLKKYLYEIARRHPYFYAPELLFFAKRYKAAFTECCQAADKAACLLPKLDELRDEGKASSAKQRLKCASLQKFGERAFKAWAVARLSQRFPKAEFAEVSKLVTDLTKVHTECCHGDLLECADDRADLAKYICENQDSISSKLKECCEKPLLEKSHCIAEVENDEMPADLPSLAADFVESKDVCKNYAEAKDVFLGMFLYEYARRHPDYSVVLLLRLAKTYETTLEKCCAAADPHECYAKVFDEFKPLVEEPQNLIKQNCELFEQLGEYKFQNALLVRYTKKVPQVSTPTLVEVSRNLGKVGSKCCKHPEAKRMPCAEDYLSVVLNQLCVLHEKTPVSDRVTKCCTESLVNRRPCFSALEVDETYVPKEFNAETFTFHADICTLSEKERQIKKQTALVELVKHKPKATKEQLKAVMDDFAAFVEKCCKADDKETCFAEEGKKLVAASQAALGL

Binder | binding result (DNMT1 [1]) | activity (DNMT1 [2]) [% inhibition] | activity (DNMT1 [3]) [% inhibition] | binding result (DNMT3B) | binding result (DNMT3A) | binding result (KAT5) | further results
Ce-49 (long, 61-mer) (ssRNA, 2'-F pyrimidines) RNA: GGGCUGAAGGGGUUACUGGGCUGAGGCCUAACGAAGGCUUCUUAUCUGCCCCGGGGAGGAG | binds | – | – | – | – | – | –
UGGGCUGAGCUCAUGGCGAGGCUUC (ssRNA, 2'-F pyrimidines) [Ce-9 sh] | – | ~40 | – | – | – | – | –
CUGAGGCCUAACGAAGGCUUCU (ssRNA, 2'-F pyrimidines) [Ce-49 sh] | – | – | ~40 | no binding | no binding | no binding | Kd (DNMT1 [4]): ~79 nM; binding result [5]: no binding
CUGAGGUAAUGGCGAGGCUUCU (ssRNA, 2'-F pyrimidines (listed with T in the sequence, described as RNA)) [Ce-10-R5] | – | ~40 | – | – | – | – | –
CUGAGGCCUUGGCGAGGCUUCU (ssRNA, 2'-F pyrimidines) [R5-F (DNMT1 bait)] | – | – | ~40 | no binding | no binding | no binding | Kd (DNMT1 [6]): 600 nM
UUACUGGGCUGAGGUAAUGGCGAGG (ssRNA, 2'-F pyrimidines) [Ce-10-2 sh] | – | – | ~40 | no binding | no binding | no binding | Kd (DNMT1 [4]): ~66 nM; binding result [5]: no binding
AGGUAAUGGCGAGGCUUCUUAUCUG (ssRNA, 2'-F pyrimidines) [Ce-10-1 sh] | – | ~40 | – | – | – | – | –
Ce-9 (long, 61-mer) (ssRNA, 2'-F pyrimidines) RNA: GGGCUGAAGGGGUUACUGGGCUGAGCUCAUGGCGAGGCUUCUUAUCUGCCCCGGGGAGGAG | binds | – | – | – | – | – | –
Ce-10 (long, 61-mer) (ssRNA, 2'-F pyrimidines) RNA: GGGCUGAAGGGGUUACUGGGCUGAGGUAAUGGCGAGGCUUCUUAUCUGCCCCGGGGAGGAG | binds | – | – | – | – | – | –
